Tests used:
[1] = target: T1, Hfq (Escherichia coli, UniProt P0A6X3 1-102); test: EMSA
[2] = target: T1, Hfq; test: EMSA; remark: listed apart in the source

T1 sequence (P0A6X3 whole entry): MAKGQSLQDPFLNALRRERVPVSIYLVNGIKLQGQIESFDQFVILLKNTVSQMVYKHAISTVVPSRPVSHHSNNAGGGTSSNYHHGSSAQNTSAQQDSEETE

B1: mutS leader ARN3* (structured_RNA)
RNA: GGUGCGCCUUAUGUGAUUACAACGAAAAUAAAAACCAUCACACCCCAUUUAAUAUCAGGGAACCGGACAUAACCCCAUGAGUGCCAUCGAGAAUUUCGACGCCCAU
Kd [1]: ~19 nM

B2: mutS leader ARN1* (structured_RNA)
RNA: GGUGCGCCUUAUGUGAUUACAACGAACGUAUAUACCAUCACACCCCAUUUAAUAUCAGGGAACCGGACAUAACCCCAUGAGUGCAAUAGAAAAUUUCGACGCCCAU
binding signal [2]: ~3 fold lower affinity than WT

Source: PMC5580658
